Experimental data: PMC2635920 (Nature structural & molecular biology, 2009)

T1: Dsl1p-Sec39p complex (S. cerevisiae, UniProt P53847 1-754; Q12745 1-709)
T1 sequence (looked up) 1: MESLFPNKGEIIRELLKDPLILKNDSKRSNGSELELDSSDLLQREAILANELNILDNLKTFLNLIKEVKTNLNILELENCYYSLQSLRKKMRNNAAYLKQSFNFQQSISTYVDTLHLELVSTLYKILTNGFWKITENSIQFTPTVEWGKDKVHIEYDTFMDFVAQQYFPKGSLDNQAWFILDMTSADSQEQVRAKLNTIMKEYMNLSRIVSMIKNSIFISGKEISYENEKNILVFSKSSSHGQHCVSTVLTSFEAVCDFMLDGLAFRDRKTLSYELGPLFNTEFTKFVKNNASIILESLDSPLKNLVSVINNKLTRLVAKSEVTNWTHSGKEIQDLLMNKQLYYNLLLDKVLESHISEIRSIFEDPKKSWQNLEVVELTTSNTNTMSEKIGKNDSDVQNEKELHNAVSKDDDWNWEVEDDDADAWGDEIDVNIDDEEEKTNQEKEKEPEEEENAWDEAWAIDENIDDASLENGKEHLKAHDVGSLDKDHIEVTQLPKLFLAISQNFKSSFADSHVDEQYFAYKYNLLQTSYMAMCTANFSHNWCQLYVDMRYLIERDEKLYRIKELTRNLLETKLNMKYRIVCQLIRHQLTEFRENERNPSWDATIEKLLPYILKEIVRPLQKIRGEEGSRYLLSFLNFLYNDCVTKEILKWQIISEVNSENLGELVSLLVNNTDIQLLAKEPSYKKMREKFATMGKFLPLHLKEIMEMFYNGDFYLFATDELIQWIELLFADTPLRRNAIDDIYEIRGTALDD
T1 sequence (looked up) 2: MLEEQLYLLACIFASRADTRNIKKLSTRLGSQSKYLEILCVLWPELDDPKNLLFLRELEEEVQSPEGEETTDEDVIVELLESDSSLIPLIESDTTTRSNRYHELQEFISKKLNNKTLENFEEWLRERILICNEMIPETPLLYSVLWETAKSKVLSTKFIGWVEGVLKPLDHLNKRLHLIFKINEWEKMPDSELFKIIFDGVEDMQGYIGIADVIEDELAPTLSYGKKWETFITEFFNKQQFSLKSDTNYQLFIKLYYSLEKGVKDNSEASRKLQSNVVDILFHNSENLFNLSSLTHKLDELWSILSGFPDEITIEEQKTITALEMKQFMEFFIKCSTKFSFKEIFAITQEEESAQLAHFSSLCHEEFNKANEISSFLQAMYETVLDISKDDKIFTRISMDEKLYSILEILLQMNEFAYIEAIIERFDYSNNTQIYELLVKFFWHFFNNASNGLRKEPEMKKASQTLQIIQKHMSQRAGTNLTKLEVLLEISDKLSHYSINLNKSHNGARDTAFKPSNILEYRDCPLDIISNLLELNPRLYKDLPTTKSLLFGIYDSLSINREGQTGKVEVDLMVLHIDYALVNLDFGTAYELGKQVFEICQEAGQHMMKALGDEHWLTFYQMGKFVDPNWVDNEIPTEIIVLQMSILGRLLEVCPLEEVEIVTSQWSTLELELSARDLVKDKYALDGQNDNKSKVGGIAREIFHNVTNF

T2: Dsl1p, full-length (residues 1-754) (S. cerevisiae, UniProt P53847 1-754)
T2 sequence (looked up): T1 sequence (looked up) 1

T3: Sec39p, full-length (residues 1-709) (S. cerevisiae, UniProt Q12745 1-709)
T3 sequence (looked up): T1 sequence (looked up) 2

T4: Dsl1p residues 37-339, as the C-terminal part of the Tip20p-Dsl1p fusion protein (S. cerevisiae, UniProt P53847 37-339)
T4 sequence (looked up): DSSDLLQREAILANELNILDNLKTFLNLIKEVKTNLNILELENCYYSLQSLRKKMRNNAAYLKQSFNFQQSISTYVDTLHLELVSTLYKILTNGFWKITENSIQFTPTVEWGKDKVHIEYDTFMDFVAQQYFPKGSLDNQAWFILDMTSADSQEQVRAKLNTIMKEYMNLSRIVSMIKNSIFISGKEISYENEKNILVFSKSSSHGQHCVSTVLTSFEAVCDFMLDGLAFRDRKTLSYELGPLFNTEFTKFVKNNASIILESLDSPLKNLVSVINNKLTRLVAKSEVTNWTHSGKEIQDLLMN

B1: Tip20p, full-length (residues 1-701) (natural protein, S. cerevisiae, UniProt P33891 1-701, looked up)
chain: MNGIDDLLNINDRIKQVQNERNELASKLQNLKQSLASNDTEVALSEVIAQDIIEVGASVEGLEQLRAKYGDLQILNKLEKVAVQQTQMQAGVDKLDSFERQLDELAEQPPDQFTLDDVKALHSKLTSVFATVPQINNIDSQYAAYNKLKSKVTGKYNDVIIQRLATNWSNTFDQKLLEAQWDTQKFASTSVGLVKCLRENSTKLYQLSLLYLPLEEETQNGDSERPLSRSNNNQEPVLWNFKSLANNFNVRFTYHFHATSSSSKIETYFQFLNDYLAENLYKCINIFHDDCNGLTKPVIHEQFINYVLQPIRDKVRSTLFQNDLKTLIVLISQILATDKNLLNSFHYHGLGLVSLISDEVWEKWINYEVEMANRQFINITKNPEDFPKSSQNFVKLINKIYDYLEPFYDLDFDLLVRYKLMTCSLIFMNLTSSYLDYILTVDSLNETRTKEQELYQTMAKLQHVNFVYRKIKSLSSNFIFIQLTDIVNSTESKKYNSLFQNVENDYEKAMSTDMQNSIVHRIQKLLKETLRNYFKISTWSTLEMSVDENIGPSSVPSAELVNSINVLRRLINKLDSMDIPLAISLKVKNELLNVIVNYFTESILKLNKFNQNGLNQFLHDFKSLSSILSLPSHATNYKCMSLHELVKILKLKYDPNNQQFLNPEYIKTGNFTSLKEAYSIKYLKDTKIQDALYRIIYGNIL
B2: Dsl1ΔN (Dsl1p residues 57-754) (domain or fragment, S. cerevisiae, UniProt P53847 57-754, looked up)
chain: NLKTFLNLIKEVKTNLNILELENCYYSLQSLRKKMRNNAAYLKQSFNFQQSISTYVDTLHLELVSTLYKILTNGFWKITENSIQFTPTVEWGKDKVHIEYDTFMDFVAQQYFPKGSLDNQAWFILDMTSADSQEQVRAKLNTIMKEYMNLSRIVSMIKNSIFISGKEISYENEKNILVFSKSSSHGQHCVSTVLTSFEAVCDFMLDGLAFRDRKTLSYELGPLFNTEFTKFVKNNASIILESLDSPLKNLVSVINNKLTRLVAKSEVTNWTHSGKEIQDLLMNKQLYYNLLLDKVLESHISEIRSIFEDPKKSWQNLEVVELTTSNTNTMSEKIGKNDSDVQNEKELHNAVSKDDDWNWEVEDDDADAWGDEIDVNIDDEEEKTNQEKEKEPEEEENAWDEAWAIDENIDDASLENGKEHLKAHDVGSLDKDHIEVTQLPKLFLAISQNFKSSFADSHVDEQYFAYKYNLLQTSYMAMCTANFSHNWCQLYVDMRYLIERDEKLYRIKELTRNLLETKLNMKYRIVCQLIRHQLTEFRENERNPSWDATIEKLLPYILKEIVRPLQKIRGEEGSRYLLSFLNFLYNDCVTKEILKWQIISEVNSENLGELVSLLVNNTDIQLLAKEPSYKKMREKFATMGKFLPLHLKEIMEMFYNGDFYLFATDELIQWIELLFADTPLRRNAIDDIYEIRGTALDD
B3: Dsl1ΔC (L41E) (domain or fragment, S. cerevisiae, UniProt P53847 1-361, looked up)
chain: MESLFPNKGEIIRELLKDPLILKNDSKRSNGSELELDSSDELQREAILANELNILDNLKTFLNLIKEVKTNLNILELENCYYSLQSLRKKMRNNAAYLKQSFNFQQSISTYVDTLHLELVSTLYKILTNGFWKITENSIQFTPTVEWGKDKVHIEYDTFMDFVAQQYFPKGSLDNQAWFILDMTSADSQEQVRAKLNTIMKEYMNLSRIVSMIKNSIFISGKEISYENEKNILVFSKSSSHGQHCVSTVLTSFEAVCDFMLDGLAFRDRKTLSYELGPLFNTEFTKFVKNNASIILESLDSPLKNLVSVINNKLTRLVAKSEVTNWTHSGKEIQDLLMNKQLYYNLLLDKVLESHISEIRS
B4: Dsl1ΔN1 (Dsl1p residues 340-754) (domain or fragment, S. cerevisiae, UniProt P53847 340-754, looked up)
chain: KQLYYNLLLDKVLESHISEIRSIFEDPKKSWQNLEVVELTTSNTNTMSEKIGKNDSDVQNEKELHNAVSKDDDWNWEVEDDDADAWGDEIDVNIDDEEEKTNQEKEKEPEEEENAWDEAWAIDENIDDASLENGKEHLKAHDVGSLDKDHIEVTQLPKLFLAISQNFKSSFADSHVDEQYFAYKYNLLQTSYMAMCTANFSHNWCQLYVDMRYLIERDEKLYRIKELTRNLLETKLNMKYRIVCQLIRHQLTEFRENERNPSWDATIEKLLPYILKEIVRPLQKIRGEEGSRYLLSFLNFLYNDCVTKEILKWQIISEVNSENLGELVSLLVNNTDIQLLAKEPSYKKMREKFATMGKFLPLHLKEIMEMFYNGDFYLFATDELIQWIELLFADTPLRRNAIDDIYEIRGTALDD

Columns and labels:
[1] = biological target: T1, Dsl1p-Sec39p complex; assay: SEC
[2] = biological target: T2, Dsl1p, full-length (residues 1-754); assay: SEC
[3] = biological target: T3, Sec39p, full-length (residues 1-709); assay: SEC
[4] = biological target: B1; assay: SEC
[5] = biological target: T4, Dsl1p residues 37-339, as the …; assay: crystal structure

## B1
[1]
  binding result: binds
[2]
  binding result: binds

## B2
[3]
  binding result: binds

## B3
[4]
  binding result: binds

## MNGIDDLLNINDRIKQVQNERNELASKLQNLKQSLASNDT (domain or fragment, S. cerevisiae, UniProt P33891 1-40, looked up) [Tip20p residues 1-40, as the N-terminal part of the Tip20p-Dsl1p fusion protein]
[5]
  binding result: binds

## B4
[3]
  binding result: binds
